# Laboratory results as given in patent US20230110188A1 (ARGENX IIP, published 2023).
# T1: Human MuSK (R&D Systems, cat. 10189-MK, histidine tag) (human, UniProt O15146 24-495)
# T1 construct: Bought protein; also called human monomeric MuSK-6xhis; not shown: histidine tag (6xhis)
# T1 sequence: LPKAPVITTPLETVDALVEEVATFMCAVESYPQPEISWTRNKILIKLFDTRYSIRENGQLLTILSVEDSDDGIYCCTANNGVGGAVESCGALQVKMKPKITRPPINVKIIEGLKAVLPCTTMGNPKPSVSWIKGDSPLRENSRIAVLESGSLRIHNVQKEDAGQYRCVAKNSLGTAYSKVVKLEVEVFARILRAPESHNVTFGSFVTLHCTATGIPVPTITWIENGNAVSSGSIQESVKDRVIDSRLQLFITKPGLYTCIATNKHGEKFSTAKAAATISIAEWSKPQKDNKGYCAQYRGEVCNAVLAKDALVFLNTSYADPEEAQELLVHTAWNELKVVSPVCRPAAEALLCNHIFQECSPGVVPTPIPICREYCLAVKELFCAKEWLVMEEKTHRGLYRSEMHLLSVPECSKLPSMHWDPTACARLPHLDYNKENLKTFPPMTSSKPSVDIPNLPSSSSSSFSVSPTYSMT
# T2: human monomeric MuSK FLAG streptavidin (in house produced, batch 27-6-2019) (human, UniProt O15146 24-495)
# T2 construct: also called full length MuSK; not shown: FLAG and streptavidin tags
# T2 sequence: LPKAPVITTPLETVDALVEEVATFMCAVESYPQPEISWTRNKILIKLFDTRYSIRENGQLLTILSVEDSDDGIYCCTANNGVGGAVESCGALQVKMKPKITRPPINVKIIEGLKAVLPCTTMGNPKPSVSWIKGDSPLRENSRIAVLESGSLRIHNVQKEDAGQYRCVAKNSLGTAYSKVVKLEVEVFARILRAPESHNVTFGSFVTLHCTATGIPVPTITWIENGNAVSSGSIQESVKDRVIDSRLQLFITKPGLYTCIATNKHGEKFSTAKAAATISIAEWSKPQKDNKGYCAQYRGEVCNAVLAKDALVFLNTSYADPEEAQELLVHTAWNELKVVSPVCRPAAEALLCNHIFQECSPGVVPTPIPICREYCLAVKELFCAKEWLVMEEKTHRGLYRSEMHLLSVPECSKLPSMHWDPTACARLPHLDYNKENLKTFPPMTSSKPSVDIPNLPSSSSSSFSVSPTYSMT
# Assays:
# [1] = target: T1, Human MuSK (R&D Systems, cat. 10189-MK, …); assay: SPR (Biacore), MuSK-coated chip presaturated with 3F6c
# [2] = target: T1, Human MuSK (R&D Systems, cat. 10189-MK, …); assay: SPR (Biacore), MuSK-coated chip presaturated with 500 nM 4D3 (competitor)
# Experimental: (§1) A chip was coated with ˜5000 RU of human MuSK (Lot nr DHUCO 11908A, batch nr 1089_MK). In a first experiment the saturating concentration of the pre-leads was determined. This is the concentration where the amplitude of a specific pre-lead doesn't increase anymore when additional pre-lead is injected on the immobilized MuSK.
# [3] = target: T1, Human MuSK (R&D Systems, cat. 10189-MK, …); assay: SPR (Biacore), MuSK-coated chip presaturated with 500 nM 3F6c (competitor)
# Experimental: as §1
# [4] = target: T1, Human MuSK (R&D Systems, cat. 10189-MK, …); assay: SPR (Biacore), MuSK-coated chip presaturated with 500 nM 3D9b (competitor)
# Experimental: as §1
# [5] = target: T1, Human MuSK (R&D Systems, cat. 10189-MK, …); assay: SPR (Biacore), MuSK-coated chip presaturated with 500 nM 3D10a (competitor)
# Experimental: as §1
# [6] = target: T1, Human MuSK (R&D Systems, cat. 10189-MK, …); assay: SPR (Biacore), MuSK-coated chip, antibody alone (run of first antibody 4D3)
# Experimental: as §1
# [7] = target: T1, Human MuSK (R&D Systems, cat. 10189-MK, …); assay: SPR (Biacore), MuSK-coated chip, antibody alone (run of first antibody 3F6c)
# Experimental: as §1
# [8] = target: T1, Human MuSK (R&D Systems, cat. 10189-MK, …); assay: SPR (Biacore), MuSK-coated chip, antibody alone (run of first antibody 3D9b)
# Experimental: as §1
# [9] = target: T1, Human MuSK (R&D Systems, cat. 10189-MK, …); assay: SPR (Biacore), MuSK-coated chip, antibody alone (run of first antibody 3D10a)
# Experimental: as §1
# [10] = target: T2, human monomeric MuSK FLAG streptavidin …; assay: epitope binning ELISA (coated anti-MuSK Fab, MuSK, IgG, anti-Fc HRP); competitor: 4D3
# Experimental: (§2) For epitope binning—An ELISA plate was coated at 1 μg/ml of the anti-MuSK Fabs and incubated overnight at 4° C. Next, the plate was wash with PBS followed by blocking with 1% casein in PBS for one hour. After washing the plate, 1 μg/ml of human monomeric MuSK (in house produced, batch 27-6-2019) was incubated for one hour at RT. The plate was washed and anti-MuSK antibodies at 0.3-10 μg/ml were added to the plate and incubated for one hour at RT. After washing the plate, detection antibody (goat anti-human Fc HRP (Jackson Immunoresearch cat. 109-035-098)) was added at 5000 fold dilution in PBS 0.1% casein. The plate was incubated for one hour at RT and washed with PBS-T. TMB was added and the reaction was stopped by adding H2504. […]
# (§3) For the epitope binning ELISA, a plate was coated with anti-MuSK Fab and human monomeric MuSK was added after blocking the plate. Next the different antibodies were added and allowed to bind.
# [11] = target: T2, human monomeric MuSK FLAG streptavidin …; assay: epitope binning ELISA (coated anti-MuSK Fab, MuSK, IgG, anti-Fc HRP); competitor: 3D9b
# Experimental: as §2, §3
# [12] = target: T2, human monomeric MuSK FLAG streptavidin …; assay: epitope binning ELISA (coated anti-MuSK Fab, MuSK, IgG, anti-Fc HRP); competitor: 3F6c
# Experimental: as §2, §3
# [13] = target: T2, human monomeric MuSK FLAG streptavidin …; assay: epitope binning ELISA (coated anti-MuSK Fab, MuSK, IgG, anti-Fc HRP); competitor: 3B5wt
# Experimental: as §2, §3
# [14] = target: T2, human monomeric MuSK FLAG streptavidin …; assay: epitope binning ELISA (coated anti-MuSK Fab, MuSK, IgG, anti-Fc HRP); competitor: 3D10a
# Experimental: as §2, §3
binder,measurement,setting,value
"3B5 (antibody, V domains shown, also called 3B5wt) VH: QVQLVQSGAVVAKPGASVQVSCKTSGYTFTGQYLHWVRQAPGQGLEWIGWINPSSGVTKFAEKFEGRATMTRDTSITTAYIDLRSLRSDDTATYYCATLSLGVYYVGMVAWGQGTLVTVSS VL: ELTQPPSVSVSPGQTATITCSGDGLAQQHVYWFQQRPGQAPLLIIYKDIERPSGIPERFSGSSSGTTAMLTISGVQAEDEADYYCQSGDRTATSVLFGGGTKMTVLG",fold of binding signal against amplitude on non-saturated MuSK,[1],≥ 3 fold
same,amplitude of prelead after presaturating MuSK (RU),[2],141 RU
same,extra amplitude (%),[2],93%
same,normalized extra amplitude (%),[2],88.1%
same,amplitude of prelead after presaturating MuSK (RU),[3],2230 RU
same,extra amplitude (%),[3],397%
same,normalized extra amplitude (%),[3],395%
same,amplitude of prelead after presaturating MuSK (RU),[4],2150 RU
same,extra amplitude (%),[4],539%
same,normalized extra amplitude (%),[4],538%
same,amplitude of prelead after presaturating MuSK (RU),[5],2260 RU
same,extra amplitude (%),[5],344%
same,normalized extra amplitude (%),[5],342%
same,amplitude of prelead without presaturating MuSK (RU),[6],151 RU
same,amplitude of prelead without presaturating MuSK (RU),[7],562 RU
same,amplitude of prelead without presaturating MuSK (RU),[8],399 RU
same,amplitude of prelead without presaturating MuSK (RU),[9],658 RU
same,OD 450 nm,[10],1.96 OD
same,OD 450 nm,[11],1.99 OD
same,OD 450 nm,[12],2.03 OD
same,OD 450 nm,[13],0.048 OD
same,OD 450 nm,[14],1.88 OD
